Test results published in the DeepSol protein solubility set.

Assay: soluble on expression in E. coli; label from the status in PepcDB or PDB records

Sequence | soluble on expression in E. coli
MSLSDDLFAPQVPVEVANRRPLADRLRPKTLSEVSGQPHLTGEEGVLRRMIDSGSLGSMIFWGPPGTGKTTVARLLSGEAGLAFEQISAIFSGVADLKKVFEAARTRRMNGRQTLLFVDEIHRFNRAQQDSFLPVMEDGTIILVGATTENPSFELNAALLSRARVLTFGSHDEDSLSELLKRAEEAEGKPLPLTEEARASLLRMADGDGRAVLTLAEEVWRAARKDETFDTEGLTRIVQRRAPVYDKSQDGHYNLISALHKSVRGSDPDAALYYLARMFDAGEDPLYLGRRLVRMAVEDIGLADPQALAVCNAAKDAYDYLGSPEGELALAQACVYLATAPKSNAVYTAFKAAMRAAKENGSLVPPKHILNAPTKLMKGEGYGDGYRYDHDEPDAFSGQDYFPEKMGRTTFYDPPDRGFEREIRKRLDWWAKLRRERGEGHHHHHH | not soluble
MSLSDNRSHIEEKYQWDLTSIFPNDQTWEKEEKSLAKDLEIAVKRAGHLLDSSQSLLEITELYLALSRRLEKLYVYASMKNDQDTTVSYYQELQAKATALIAKFNQTFAFYEPEFMLLSTEKYQDFLADCPDLLPYQHFFEKLFKQKKHVLSQKEEALLAEASEIFGAAGETFEILDNADIIFPWVKDETGEEVELSHGNFISLMESKNRKVRQEAYKAMYSIYEQYQHTYAKTLQTNVKVNNFQAKIRNYKSAREAALAANFIPETVYDTLVEAVHNHLPLLQRYVKLRQNVLGLDDLKMYDIYVPLSEMDMTFTYEAALDKAEEVLAIFGRDYAERVHRAFRERWIDVRVNKGKRSGAYSGGSYDTNAFILLNWQDTLDNLFTLVHETGHSLHSTFTRENQPYVYGDYSIFLAEIASTTNENILTETLLKEATDEKQRFAILNHYLDGFKGTVFRQTQFAEFEDLIYKADQAGDVLTSDYLNNLYADLNEKYYGLSKENNPEIQYEWARIPHFYYNFYVYQYATGFAAASFLAHKIVHGNQEDKDKYLNYLKAGNSDYPLNVIAKAGLDMTESTYLDQAFKVFEERLIELEELVEKGIDEGHHHHHH | soluble
MSLSDNVVTSKVGNVTEKELSKELRQQYGESTLYQMMLSKALLDKYKVSDEEAKKKVEEAKDKMGENFKSTLEQLGLKNEDELKEKMKPEIAFEKAIKATVTDKDVKNNYKPEMKVSHILVKDEKTAKEIKEKVNNGEDFAALANQYSEDTGSKEQGGEISGFAPGQTVKEFEEAAYKLDAGQVSDPVKTTYGYHIIKVTDKKELKPFDEVKDKIRKDIEQQRLQDTTGKWKQQVVNDLLKDADIKVNNKEFKDTFKFLEKEGHHHHHH | soluble
MSLSDVKVIIMDIDGTLTTSKKIISEKTKKALKKAQELGAVLILASGRPTSGLMDFAKELEMDKNHGLLVSFNGARVVDCETNKILFNETMSIDQGQAVLEHMKKFEVKPMIDKGDYMYVNDVFDNEIQYKGEPFNIIQYESRNNKFKLCEKHDLAAFADYPLNKILTAGEPEYLKKHYKEMMEPFKESLNCMFTADFYFEFTAEGIDKAKALDTVLIPMGYKKEEMIAFGDGHNDISMVKYAGIGVAMDNAVQELKNAADEVTLSNEEDGIAYTLSKYMKGLEGHHHHHH | soluble
MSLSEKVTIYDIAEKLNITAATVSRALNNNPKIKESTRELVIKTAASMNYKQNKLALALKSGRSNNIGVIVPRIDSNFFASVIRGIEEELQPHGYQVIICQTHESKQRENENLYTLIDAQVDGILMSVTDVTSENDDAFNNVLQKNVPLIFFDRSKHIDGVSSVTINDFRGGYLTTKHLINEGCRYIAHFSGDQSLEIFKNRFLGYKQALLDHGIEFKEEYVIPVKSMVDAGKEAVDKLLQLETPPDAIFSSSDFAALGAIQELKERNISIPNEFCVAGFSNEPFTKFMELSITSVDQSPLEMGKMAARVFLEQVDKTDTIKIEKKVVLAPELHIRKSSSRTNFEGHHHHHH | soluble
MSLSHQQKVYIPKEARTNQYITAEIKVTDELLNQYPDYHSCYQTLSRIIFNLAEQHDLRNVHVITNDKLPVVRYHTEAYCFQTAEQILFFYNPAYHEAQNLFTADNYRARKLRIVFLATGDEIRSNSANFHTRVQEFLNELMPKLPIKDLKVKIRDHQHLSYDLFAKSKGNKETYGYKLRAIAPRYKARKCELPENVSSLTYVTVSLPLSRKLKQGLLPESATDFSPLYQHLEDNFLKAAANKQLTRLAMIANGLTPLVRNSKFEKLDSKAEVQMIGFDPNATEQQVIRRWDADNLVEAAHFTIVAGAKDCDDAGYGRFMNNVEAALKSFAAEIGLDPEREDLVTRFHQHISYQL | soluble
